# Target: BauA on the surface of the strains of the A. baumannii diversity set (100 strains, MRSN)
# Test: native ELISA on the diversity set of 100 A. baumannii strains
binder,measurement,value
"αBauA mouse monoclonal antibody against BauA of Acinetobacter baumannii (hybridoma subclone 12C1) (antibody, V domains shown) VH: EVQLQESGADLVRPGSSVKISCKASGYAFSNYWMHWMKQRPGQGLEWIGQIYPGDGDTNYNGKFKGKATLTADKSSSSAYMQLSSLISEDSAVYFCARGDFYYGSPFAYWGQGTLVTVSA VL: DIVMTQAAPSVPVTPGESVSISCRSSKSLLHSNGNTYLYWFLQRPGQSPQLLIYRMSNLASGVPDRFSGSGSGTAFTLRISRVEAEDVGVYYCMQHLEYPLTFGAGTKLELK",percent of strains recognized,> 68%

# — patent publication US20260201022A1
